Data as given in US20160175384A1.
Square brackets hold non-standard residues; d marks the D form. * marks the point of attachment. Butanoyl(4-Ph) = O=C(CCCc1ccccc1)*; Butanoyl(4-ethynyl) = C#CCCCC(=O)*

B1: 4-targeted triblock polymer micelles (peptide, part only; not given: triblock polymer, part only)
peptide: {Butanoyl(4-Ph)}-H[dF]RWGK(Butanoyl(4-ethynyl))-NH2
modifications: not fully specified; printed as 4-phenylbutyryl-His-DPhe-Arg-Trp-Gly-Lys(hex-5-ynoyl)-NH2; also: Lys hex-5-ynoyl clicked via 1,2,3-triazole to PEG azide of triblock polymer micelle

Legend:
[1] = biological target: human melanocortin 1 receptor (human) (UniProt Q01726); experiment: competitive binding vs Eu-NDP-alpha-MSH, time-resolved fluorescence, HCT116/hMC1R cells; concentration normalized to the targeting group
[2] = biological target: human melanocortin 1 receptor (human) (UniProt Q01726); experiment: time-resolved lanthanide fluorescence competitive binding; reference 1-targeted UXL micelles
[3] = biological target: human melanocortin 1 receptor (human) (UniProt Q01726); experiment: time-resolved lanthanide fluorescence competitive binding vs Eu-labeled NDP-alpha-MSH; 10% ligand loading

Chain of human melanocortin 1 receptor (human) (Q01726 whole entry): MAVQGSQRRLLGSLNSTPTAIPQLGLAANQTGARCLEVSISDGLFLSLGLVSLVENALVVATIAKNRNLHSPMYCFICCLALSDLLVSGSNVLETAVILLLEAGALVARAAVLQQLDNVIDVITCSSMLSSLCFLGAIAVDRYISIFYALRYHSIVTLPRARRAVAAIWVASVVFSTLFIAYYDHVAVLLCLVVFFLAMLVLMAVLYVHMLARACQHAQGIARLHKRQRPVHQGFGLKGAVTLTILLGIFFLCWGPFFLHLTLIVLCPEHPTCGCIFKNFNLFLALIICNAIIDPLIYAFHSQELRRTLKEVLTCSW

Binder | Ki [1] [µM] | fold lower Ki than the corresponding UXL micelles [2] [times] | Ki [3] [µM]
B1 | 0.0115 | – | –
{Butanoyl(4-Ph)}-H[dF]RWGK(Butanoyl(4-ethynyl))-NH2 (peptide, part only; not given: crosslinked triblock polymer, part only, also: Fe(III)-crosslinked micelle) | – | 4 | 0.0029
{Butanoyl(4-Ph)}-H[dF]RWGK(Butanoyl(4-ethynyl))-NH2 (peptide, part only; not given: uncrosslinked triblock polymer, part only, also: uncrosslinked micelle) | – | – | 0.012
